From paper PMC10699790

Molecular target: HA-Halo-mGluR3 (rat), P31422
Assay: single-molecule pulldown
Settings: remark: other sources report otherwise

B1: HA-Halo-mGluR3, P31422 23-879 (receptor)
chain: LGDHNFMRREIKIEGDLVLGGLFPINEKGTGTEECGRINEDRGIQRLEAMLFAIDEINKDNYLLPGVKLGVHILDTCSRDTYALEQSLEFVRASLTKVDEAEYMCPDGSYAIQENIPLLIAGVIGGSYSSVSIQVANLLRLFQIPQISYASTSAKLSDKSRYDYFARTVPPDFYQAKAMAEILRFFNWTYVSTVASEGDYGETGIEAFEQEARLRNICIATAEKVGRSNIRKSYDSVIRELLQKPNARVVVLFMRSDDSRELIAAANRVNASFTWVASDGWGAQESIVKGSEHVAYGAITLELASHPVRQFDRYFQSLNPYNNHRNPWFRDFWEQKFQCSLQNKRNHRQVCDKHLAIDSSNYEQESKIMFVVNAVYAMAHALHKMQRTLCPNTTKLCDAMKILDGKKLYKEYLLKINFTAPFNPNKGADSIVKFDTFGDGMGRYNVFNLQQTGGKYSYLKVGHWAETLSLDVDSIHWSRNSVPTSQCSDPCAPNEMKNMQPGDVCCWICIPCEPYEYLVDEFTCMDCGPGQWPTADLSGCYNLPEDYIKWEDAWAIGPVTIACLGFLCTCIVITVFIKHNNTPLVKASGRELCYILLFGVSLSYCMTFFFIAKPSPVICALRRLGLGTSFAICYSALLTKTNCIARIFDGVKNGAQRPKFISPSSQVFICLGLILVQIVMVSVWLILETPGTRRYTLPEKRETVILKCNVKDSSMLISLTYDVVLVILCTVYAFKTRKCPENFNEAKFIGFTMYTTCIIWLAFLPIFYVTSSDYRVQTTTMCISVSLSGFVVLGCLFAPKVHIVLFQPQKNVVTHRLHLNRFSVSGTATTYSQSSASTYVPTVCNGREVLDSTTSSL
modifications: here or on the partner: Halo tag labeled with CA-SS-Alexa-488; Halo tag labeled with CA-SS-Alexa-488
  stoichiometry N: 2
